Measured values reported in US20260274981A1 (VIB VZW, published 2026).
Read-outs that look alike come from different tables or passages of the source.

What was measured:
[1] = biological target: T1, recombinant human TfR (2474-TR, R&D Systems), biotinylated (human, UniProt P02786 89-760, biotinylated with EZ-Link NHS-PEG4-Biotinylation Kit); assay: SPR (Biacore), biotinylated human TfR captured on an SA chip, VHH injected, 1:1 dissociation fit, pH 5.5
T1 construct: Bought protein; also called immobilized recombinant human TfR; biotinylated human TfR
T1 sequence (P02786 89-760 limits assumed): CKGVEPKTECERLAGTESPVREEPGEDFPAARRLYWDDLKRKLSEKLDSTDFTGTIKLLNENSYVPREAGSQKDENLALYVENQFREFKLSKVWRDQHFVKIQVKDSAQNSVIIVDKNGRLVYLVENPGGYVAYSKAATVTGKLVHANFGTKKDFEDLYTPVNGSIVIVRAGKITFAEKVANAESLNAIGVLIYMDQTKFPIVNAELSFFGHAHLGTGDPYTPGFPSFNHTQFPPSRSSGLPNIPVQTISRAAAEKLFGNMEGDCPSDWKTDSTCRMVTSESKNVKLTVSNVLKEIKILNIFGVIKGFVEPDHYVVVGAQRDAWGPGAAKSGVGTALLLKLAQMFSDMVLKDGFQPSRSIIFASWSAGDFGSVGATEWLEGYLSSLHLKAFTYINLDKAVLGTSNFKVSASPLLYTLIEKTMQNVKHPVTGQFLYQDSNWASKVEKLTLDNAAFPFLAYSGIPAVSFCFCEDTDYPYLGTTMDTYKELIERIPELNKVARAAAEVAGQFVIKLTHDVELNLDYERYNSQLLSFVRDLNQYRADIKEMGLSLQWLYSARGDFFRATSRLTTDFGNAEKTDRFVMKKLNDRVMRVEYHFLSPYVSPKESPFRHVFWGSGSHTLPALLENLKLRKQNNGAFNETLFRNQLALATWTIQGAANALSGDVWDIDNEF
Protocol: (§1) E. coli TG1 bacteria were transformed with those plasmids and expressions induced. Crude extracts were prepared and analyzed for binding by flow cytometry on human TfR overexpressing cells. […] Next, off rates of these selected variants were determined on recombinant human TfR by surface plasmon resonance (Biacore, Marlborough, Massachusetts, United States). Biotinylated human TfR was captured on a streptavidin-coated SA sensor chip (Cytiva). Increasing concentrations of nanobodies were sequentially injected in a single cycle at a flow rate of 30 μL/min. The dissociation was monitored for around 20 min. A reference flow was used as a control for non-specific binding and refractive index changes. Several buffer blanks were used for double referencing. Off rates were derived after fitting the experimental data to the 1:1 binding model with the Biacore Evaluation Software.
(§2) Surface Plasmon Resonance (SPR) was used to measure the interaction between VHHs and human or cynomolgus TfR receptor. Human TfR (2474-TR, R&D Systems) and cynomolgus TfR (90253-C07H, Sino Biological) were biotinylated with the EZ-Link NHS-PEG4-Biotinylation Kit (ThermoFischer Scientific) according to the manufacturer instructions. The binding experiments were performed at 25° C. on a Biacore T200 instrument (Cytiva, Uppsala, Sweden) in HBS-EP+ buffer (10 mM HEPES, 150 mM NaCl, 3 mM EDTA and 0.05% v/v Surfactant P20). Biotinylated human TfR and cynomolgus TfR were captured on a SA sensor chip (Cytiva) at a density of around 250 RU. Increasing concentrations of VHHs were sequentially injected in one single cycle at a flow rate of 30 μl/min. The dissociation was monitored for 20 min. […] A reference flow was used as a control for non-specific binding and refractive index changes. Several buffer blanks were used for double referencing. Binding affinities (KD) and kinetic rate constants (kₒₙ, koff) were derived after fitting the experimental data to the 1:1 binding model with the Biacore T200 Evaluation Software 3.1 using the single cycle kinetic procedure.

[2] = biological target: T1, recombinant human TfR (2474-TR, R&D …); assay: SPR (Biacore), biotinylated human TfR captured on an SA chip, VHH injected, 1:1 dissociation fit, pH 7.4
Protocol: as §1, §2

[3] = biological target: T1, recombinant human TfR (2474-TR, R&D …); assay: SPR (Biacore), ratio of the off rates on human TfR at the two pH values; the printed number equals kd at pH 5.5 divided by kd at pH 7.4
Protocol: as §1, §2

[4] = biological target: T1, recombinant human TfR (2474-TR, R&D …); assay: SPR (Biacore), biotinylated human TfR captured on an SA chip, VHH injected, 1:1 dissociation fit, pH 5.5; remark: listed apart in the source
Protocol: as §1, with “In brief, DNA was synthesized by Genscript (Piscataway, New Jersey, United States) and cloned into an E. coli compatible expression plasmid according to standard methods. E.” for “E.”

[5] = biological target: T1, recombinant human TfR (2474-TR, R&D …); assay: SPR (Biacore), biotinylated human TfR captured on an SA chip, VHH injected, 1:1 dissociation fit, pH 7.4; remark: listed apart in the source
Protocol: as §1, with “In brief, DNA was synthesized by Genscript (Piscataway, New Jersey, United States) and cloned into an E. coli compatible expression plasmid according to standard methods. E.” for “E.”

[6] = biological target: T1, recombinant human TfR (2474-TR, R&D …); assay: SPR (Biacore), ratio of the off rates on human TfR at the two pH values; the printed number equals kd at pH 5.5 divided by kd at pH 7.4; remark: listed apart in the source
Protocol: as §1, with “In brief, DNA was synthesized by Genscript (Piscataway, New Jersey, United States) and cloned into an E. coli compatible expression plasmid according to standard methods. E.” for “E.”

Binder | koff [1] [s⁻¹] | koff [2] [s⁻¹] | off-rate ratio kd pH5.5/kd pH7.4 [3] | koff [4] [s⁻¹] | koff [5] [s⁻¹] | off-rate ratio kd pH5.5/kd pH7.4 [6]
BBB00736 (VHH, also called variant of BBB00515) VHH: EVQLVESGGGLVQAGGSLRLSCAASGSIFSINAMGWYRQAPGKQRELVAVITSGGSTIYADSVKGRFTISRDNAENTVYLQMNSLRPEDTAVYYCNAHVGLKVPTIQELSLGFGSWGQGTLVTVSS | 0.0183 | 0.00782 | 2.35 |  |  | 
BBB00737 (VHH, Histidine mutant) VHH: EVQLVESGGGLVQAGGSLRLSCAASHSIFSINAMGWYRQAPGKQRELVAVITSGGSTIYADSVKGRFTISRDNAENTVYLQMNSLRPEDTAVYYCNAHVGLKVPTIQELSLGFGSWGQGTLVTVSS | 0.02 | 0.00861 | 2.32 |  |  | 
BBB00677 (VHH, also called variant of BBB00533) VHH: EVQLVESGGGSVQPGGSLRLSCTASGRTFNYAMGWFRQAPGKNREFVATIDWKDGSSYYLDSVRGRFTIERDDAKNTVYLQMNSLRPEDAAVYTCAVGDGDYCSTYTCAAEVEYDYWGQGTLVTVSS |  |  |  | 0.00946 | 0.00545 | 1.74
BBB00710 (VHH, also called histidine mutant of BBB00515) VHH: EVQLVESGGGSVQPGGSLRLSCTASGRTFNYAMGWFRQAPGKNREFVATIDWKDGHSYYLDSVRGRFTIERDDAKNTVYLQMNSLRPEDAAVYTCAVGDGDYCSTYTCAAEVEYDYWGQGTLVTVSS |  |  |  | 0.0126 | 0.00444 | 2.84
BBB00729 (VHH, also called histidine mutant of BBB00515) VHH: EVQLVESGGGSVQPGGSLRLSCTASGRTFNYAMGWFRQAPGKNREFVATIDWKDGSSYYLDSVRGRFTIERDDAKNTVYLQMNSLRPEDAAVYTCAVGDGDYCSTYTCAAEVEYDHWGQGTLVTVSS |  |  |  | 0.0113 | 0.00562 | 2.01
BBB00719 (VHH, Histidine mutant) VHH: EVQLVESGGGSVQPGGSLRLSCTASGRTFNYAMGWFRQAPGKNREFVATIDWKDGSSYYLDSVRGRFTIERDDAKNTVYLQMNSLRPEDAAVYTCAVGDGDYCSHYTCAAEVEYDYWGQGTLVTVSS |  |  |  | 0.0091 | 0.00586 | 1.55
BBB00728 (VHH, Histidine mutant) VHH: EVQLVESGGGSVQPGGSLRLSCTASGRTFNYAMGWFRQAPGKNREFVATIDWKDGSSYYLDSVRGRFTIERDDAKNTVYLQMNSLRPEDAAVYTCAVGDGDYCSTYTCAAEVEYHYWGQGTLVTVSS |  |  |  | 0.0127 | 0.00787 | 1.62
BBB00697 (VHH, also called histidine mutant of BBB00515) VHH: EVQLVESGGGSVQPGGSLRLSCTASGRTHNYAMGWFRQAPGKNREFVATIDWKDGSSYYLDSVRGRFTIERDDAKNTVYLQMNSLRPEDAAVYTCAVGDGDYCSTYTCAAEVEYDYWGQGTLVTVSS |  |  |  | 0.0107 | 0.00596 | 1.79
BBB00698 (VHH, also called histidine mutant of BBB00515) VHH: EVQLVESGGGSVQPGGSLRLSCTASGRTFHYAMGWFRQAPGKNREFVATIDWKDGSSYYLDSVRGRFTIERDDAKNTVYLQMNSLRPEDAAVYTCAVGDGDYCSTYTCAAEVEYDYWGQGTLVTVSS |  |  |  | 0.0109 | 0.00506 | 2.15
BBB00718 (VHH, also called histidine mutant of BBB00515) VHH: EVQLVESGGGSVQPGGSLRLSCTASGRTFNYAMGWFRQAPGKNREFVATIDWKDGSSYYLDSVRGRFTIERDDAKNTVYLQMNSLRPEDAAVYTCAVGDGDYCHTYTCAAEVEYDYWGQGTLVTVSS |  |  |  | 0.0154 | 0.00695 | 2.21
BBB00695 (VHH, Histidine mutant) VHH: EVQLVESGGGSVQPGGSLRLSCTASGHTFNYAMGWFRQAPGKNREFVATIDWKDGSSYYLDSVRGRFTIERDDAKNTVYLQMNSLRPEDAAVYTCAVGDGDYCSTYTCAAEVEYDYWGQGTLVTVSS |  |  |  | 0.00874 | 0.00577 | 1.51
BBB00699 (VHH, Histidine mutant) VHH: EVQLVESGGGSVQPGGSLRLSCTASGRTFNHAMGWFRQAPGKNREFVATIDWKDGSSYYLDSVRGRFTIERDDAKNTVYLQMNSLRPEDAAVYTCAVGDGDYCSTYTCAAEVEYDYWGQGTLVTVSS |  |  |  | 0.00858 | 0.00524 | 1.64
BBB00709 (VHH, also called histidine mutant of BBB00515) VHH: EVQLVESGGGSVQPGGSLRLSCTASGRTFNYAMGWFRQAPGKNREFVATIDWKDHSSYYLDSVRGRFTIERDDAKNTVYLQMNSLRPEDAAVYTCAVGDGDYCSTYTCAAEVEYDYWGQGTLVTVSS |  |  |  | 0.00937 | 0.00511 | 1.84
BBB00707 (VHH, Histidine mutant) VHH: EVQLVESGGGSVQPGGSLRLSCTASGRTFNYAMGWFRQAPGKNREFVATIDWHDGSSYYLDSVRGRFTIERDDAKNTVYLQMNSLRPEDAAVYTCAVGDGDYCSTYTCAAEVEYDYWGQGTLVTVSS |  |  |  | 0.00632 | 0.00439 | 1.44
BBB00716 (VHH, Histidine mutant) VHH: EVQLVESGGGSVQPGGSLRLSCTASGRTFNYAMGWFRQAPGKNREFVATIDWKDGSSYYLDSVRGRFTIERDDAKNTVYLQMNSLRPEDAAVYTCAVGDGHYCSTYTCAAEVEYDYWGQGTLVTVSS |  |  |  | 0.00904 | 0.00533 | 1.7
BBB00704 (VHH, also called histidine mutant of BBB00515) VHH: EVQLVESGGGSVQPGGSLRLSCTASGRTFNYAMGWFRQAPGKNREFVATHDWKDGSSYYLDSVRGRFTIERDDAKNTVYLQMNSLRPEDAAVYTCAVGDGDYCSTYTCAAEVEYDYWGQGTLVTVSS |  |  |  | 0.00911 | 0.00358 | 2.55
BBB00708 (VHH, Histidine mutant) VHH: EVQLVESGGGSVQPGGSLRLSCTASGRTFNYAMGWFRQAPGKNREFVATIDWKHGSSYYLDSVRGRFTIERDDAKNTVYLQMNSLRPEDAAVYTCAVGDGDYCSTYTCAAEVEYDYWGQGTLVTVSS |  |  |  | 0.0086 | 0.00547 | 1.57
BBB00694 (VHH, Histidine mutant) VHH: EVQLVESGGGSVQPGGSLRLSCTASHRTFNYAMGWFRQAPGKNREFVATIDWKDGSSYYLDSVRGRFTIERDDAKNTVYLQMNSLRPEDAAVYTCAVGDGDYCSTYTCAAEVEYDYWGQGTLVTVSS |  |  |  | 0.00728 | 0.00538 | 1.35
